According to US20040006214A1:

Target: hepatitis C virus in patient serum
Assay: immobilized adsorbent shaken with HCV patient serum 37 C 2 h; HCV RNA in supernatant against saline control

Row | Substance | Adsorption rate (%)
1 | peptide having the amino acid sequence of 57 residues in the C3 domain of protein G with cysteine ad | 28
2 | protein G (Pharmacia LKB) (from UniProt P19909 303-497) | 82
